Measurements published in patent publication US20220143148A1, “COMPOSITIONS AND METHODS FOR MODULATING CGRP SIGNALING TO REGULATE INTESTINAL INNATE LYMPHOID CELLS” (The Broad Institute, Inc., priority 2019, published 2022).

Tested on: small intestinal immune cells
Test: Droplet-based scRNA-seq of small intestinal immune cells (LP and PP), OVA vs PBS, clustering and differential expression
Assay type: in vivo, mouse
Source text: To comprehensively characterize small intestinal immune cells, Applicants generated scRNA-Seq profiles for 58,067 immune cells collected from lamina propria (LP) and Peyer's patch (PP) regions at steady state and after induction of a type 2 inflammatory reaction to ovalbumin (OVA) (Brandt et al., 2003) (FIGS. 1A and 8A). To ensure sufficient representation of rare cells, Applicants combined a normalization strategy—removing by flow sorting either a portion of IgD+ naïve B cells, which are the most abundant cell type in PPs, or all CD19+ and CD3+ T cells (FIG. 8B, Methods)—with profiling of a sufficiently large number of cells number (P>0.99 to recover at least 15 cells from each cluster, Methods) by massively parallel scRNA-seq (Haber et al., 2017) (Methods). Applicants obtained 36,797 and 21,270 high quality cells passing initial filtering (Methods) from PP and LP regions, respectively.
Overall, Applicants annotated 27 cell subsets across the two compartments, spanning T cells, B cells, ILCs, dendritic cells (DCs), myeloid cells and stromal cells, in frequencies ranging from 0.07% to 14%. Briefly, Applicants first partitioned the cells from the PP regions by unsupervised clustering (Methods) into 46 clusters, retained the 97% of cells that were robustly assigned cell identities in each cluster (Methods), assigned the cells from the LP regions to the 46 clusters using a classifier (Methods), and visualized the data with scvis (Ding et al., 2018), a deep generative model-based method (FIGS. 1B and 8C, Methods). Next, Applicants identified genes that were differentially expressed between the cells in each cluster and the remaining cells (Table 1, Methods), as well as between pairs of clusters (Table 2), to elucidate identities of similar cell types/states. Applicants excluded from downstream analysis clusters mostly consisting of contaminants from epithelium, likely doublets, or cells with a small number of Unique Molecular Identifiers (UMIs) (FIGS. 1C and 8D), or lacking distinct markers (Methods). Altogether, Applicants retained 27 clusters spanning 85% of the cells and each associated with distinct marker genes (FIG. 8E, Methods).
To induce allergic reaction to OVA, 6 to 7 weeks old mice were sensitized twice, two weeks apart, with 50 μg of OVA plus 1 mg of aluminum potassium sulfate adjuvant via intraperitoneal injection. Two weeks later, mice were orally administered with 50 mg of OVA on every other day for a total of five times. 1 μg of α-CGRP peptide was administered simultaneously when indicated. Mice were deprived of food for 3-4 hours in cages with wood chip bedding for limiting antigen degradation in the stomach before each intragastric challenge.
Isolation of cells from Peyer's patches (PPs). Peyer's patches (PPs) were carefully dissected from the small intestine under a stereo microscope using a fine scissor, pierced once with a fine forcep. Tissues were digested in freshly made digestion buffer (RPMI-1640 containing 100 μg/ml Liberase™ and 50 μg/ml DNase I at 37° C. on a roto-mixer. After 15 min, tissues were very gently mixed using a 1 ml pipette. The supernatant was collected and added to ice-cold MACS buffer (pH 7.4; PBS plus 2% FCS and 2 mM EDTA). Pre-warmed (37° C.) fresh digestion buffer was added to the remaining tissues. After rotation at 37° C. for 15 min, the mixture was vigorously mixed using a 1 ml pipette for 1 min. Supernatants from the two steps were combined and passed through 70 μm filters and stained for FACS (below).
Isolation of cells from the lamina propria (LP). The small intestines were opened longitudinally and washed in ice-cold PBS. For scRNA-seq, roughly 0.5 cm of fragments from each of the distal, middle and proximal regions without visible PPs were collected. Epithelial cells were dissociated by tissue rotation in pre-warmed (37° C.) PBS containing 10 mM EDTA at 37° C. for 15 min, followed by additional incubation on ice for 15 min. Tissues were then shaken vigorously. […]

B1: OVA (protein, UniProt P01012 2-386, looked up)
Ovalbumin: GSIGAASMEFCFDVFKELKVHHANENIFYCPIAIMSALAMVYLGAKDSTRTQINKVVRFDKLPGFGDSIEAQCGTSVNVHSSLRDILNQITKPNDVYSFSLASRLYAEERYPILPEYLQCVKELYRGGLEPINFQTAADQARELINSWVESQTNGIIRNVLQPSSVDSQTAMVLVNAIVFKGLWEKAFKDEDTQAMPFRVTEQESKPVQMMYQIGLFRVASMASEKMKILELPFASGTMSMLVLLPDEVSGLEQLESIINFEKLTEWTSSNVMEERKIKVYLPRMKMEEKYNLTSVLMAMGITDVFSSSANLSGISSAESLKISQAVHAAHAEINEAGREVVGSAEAGVDAASVSEEFRADHPFLFCIKHIATNAVLFFGRCVSP
D16Ertd472e: LN (average fold change) (cluster ID 4, PP, OVA vs PBS): −0.412 | Dnaja1: LN (average fold change) (cluster ID 4, PP, OVA vs PBS): −0.300 | Dnajb9: LN (average fold change) (cluster ID 4, PP, OVA vs PBS): −0.322 | Egln3: LN (average fold change) (cluster ID 4, PP, OVA vs PBS): −0.350 | Fam46a: LN (average fold change) (cluster ID 4, PP, OVA vs PBS): −0.500 | Fibp: LN (average fold change) (cluster ID 4, PP, OVA vs PBS): −0.268 | Furin: LN (average fold change) (cluster ID 4, PP, OVA vs PBS): −0.203 | Gatad1: LN (average fold change) (cluster ID 4, PP, OVA vs PBS): −0.316 | Gcnt2: LN (average fold change) (cluster ID 4, PP, OVA vs PBS): −0.352 | Gimap3: LN (average fold change) (cluster ID 4, PP, OVA vs PBS): 0.275 | Git2: LN (average fold change) (cluster ID 4, PP, OVA vs PBS): 0.350 | Gnb1: LN (average fold change) (cluster ID 4, PP, OVA vs PBS): −0.255 | H2-T23: LN (average fold change) (cluster ID 4, PP, OVA vs PBS): −0.260 | Herpud1: LN (average fold change) (cluster ID 4, PP, OVA vs PBS): −0.214 | Icos: LN (average fold change) (cluster ID 4, PP, OVA vs PBS): −0.291 | Il2ra: LN (average fold change) (cluster ID 4, PP, OVA vs PBS): 0.378 | Il18r1: LN (average fold change) (cluster ID 4, PP, OVA vs PBS): 0.193 | Irf2: LN (average fold change) (cluster ID 4, PP, OVA vs PBS): 0.312 | Irs2: LN (average fold change) (cluster ID 4, PP, OVA vs PBS): −0.372 | Itgav: LN (average fold change) (cluster ID 4, PP, OVA vs PBS): −0.394 | Klf13: LN (average fold change) (cluster ID 4, PP, OVA vs PBS): −0.255 | Klrk1: LN (average fold change) (cluster ID 4, PP, OVA vs PBS): −0.613 | Leng9: LN (average fold change) (cluster ID 4, PP, OVA vs PBS): −0.375 | Map3k14: LN (average fold change) (cluster ID 4, PP, OVA vs PBS): −0.515 | Mast4: LN (average fold change) (cluster ID 4, PP, OVA vs PBS): −0.207 | Mbnl2: LN (average fold change) (cluster ID 4, PP, OVA vs PBS): −0.436 | Minos1: LN (average fold change) (cluster ID 4, PP, OVA vs PBS): 0.218 | Morf4l2: LN (average fold change) (cluster ID 4, PP, OVA vs PBS): −0.252 | Neat1: LN (average fold change) (cluster ID 4, PP, OVA vs PBS): 0.447 | Nedd8: LN (average fold change) (cluster ID 4, PP, OVA vs PBS): 0.234 | Plekhg1: LN (average fold change) (cluster ID 4, PP, OVA vs PBS): −0.229 | Ppp1r16b: LN (average fold change) (cluster ID 4, PP, OVA vs PBS): −0.157 | Ppp2ca: LN (average fold change) (cluster ID 4, PP, OVA vs PBS): −0.432 | Ptger2: LN (average fold change) (cluster ID 4, PP, OVA vs PBS): 0.347 | Ptpn7: LN (average fold change) (cluster ID 4, PP, OVA vs PBS): 0.323 | Raf1: LN (average fold change) (cluster ID 4, PP, OVA vs PBS): 0.457 | Ramp3: LN (average fold change) (cluster ID 4, PP, OVA vs PBS): −0.380 | Rassf5: LN (average fold change) (cluster ID 4, PP, OVA vs PBS): 0.506 | Rcn2: LN (average fold change) (cluster ID 4, PP, OVA vs PBS): −0.225 | Rel: LN (average fold change) (cluster ID 4, PP, OVA vs PBS): −0.354 | Rgs1: LN (average fold change) (cluster ID 4, PP, OVA vs PBS): −0.221 | Rgs3: LN (average fold change) (cluster ID 4, PP, OVA vs PBS): 0.447 | Rnf19b: LN (average fold change) (cluster ID 4, PP, OVA vs PBS): −0.242 | Rpa3: LN (average fold change) (cluster ID 4, PP, OVA vs PBS): 0.541 | S100a6: LN (average fold change) (cluster ID 4, PP, OVA vs PBS): 0.370 | S100a10: LN (average fold change) (cluster ID 4, PP, OVA vs PBS): 0.215 | Saraf: LN (average fold change) (cluster ID 4, PP, OVA vs PBS): −0.187 | Sat1: LN (average fold change) (cluster ID 4, PP, OVA vs PBS): 0.222 | Scn1b: LN (average fold change) (cluster ID 4, PP, OVA vs PBS): −0.273 | Sec11a: LN (average fold change) (cluster ID 4, PP, OVA vs PBS): 0.283 | Serpina3g: LN (average fold change) (cluster ID 4, PP, OVA vs PBS): 0.347 | Serpinb6b: LN (average fold change) (cluster ID 4, PP, OVA vs PBS): −0.432 | Ssna1: LN (average fold change) (cluster ID 4, PP, OVA vs PBS): 0.346 | Taf7: LN (average fold change) (cluster ID 4, PP, OVA vs PBS): −0.409 | Taf10: LN (average fold change) (cluster ID 4, PP, OVA vs PBS): −0.422 | Tagap: LN (average fold change) (cluster ID 4, PP, OVA vs PBS): 0.423 | Tcrg-C1: LN (average fold change) (cluster ID 4, PP, OVA vs PBS): 0.484 | Tgoln1: LN (average fold change) (cluster ID 4, PP, OVA vs PBS): −0.209 | Timm13: LN (average fold change) (cluster ID 4, PP, OVA vs PBS): 0.230 | Tnf: LN (average fold change) (cluster ID 4, PP, OVA vs PBS): 0.465 | Trim8: LN (average fold change) (cluster ID 4, PP, OVA vs PBS): 0.530 | Trps1: LN (average fold change) (cluster ID 4, PP, OVA vs PBS): −0.444 | Tsc22d3: LN (average fold change) (cluster ID 4, PP, OVA vs PBS): 0.359 | Tspan32: LN (average fold change) (cluster ID 4, PP, OVA vs PBS): 0.324 | Ttc19: LN (average fold change) (cluster ID 4, PP, OVA vs PBS): −0.499 | Tuba4a: LN (average fold change) (cluster ID 4, PP, OVA vs PBS): −0.342 | Tubb4b: LN (average fold change) (cluster ID 4, PP, OVA vs PBS): −0.252 | Txk: LN (average fold change) (cluster ID 4, PP, OVA vs PBS): −0.188 | Vegfa: LN (average fold change) (cluster ID 4, PP, OVA vs PBS): −0.252 | VgIl4: LN (average fold change) (cluster ID 4, PP, OVA vs PBS): −0.302 | Zc3hav1: LN (average fold change) (cluster ID 4, PP, OVA vs PBS): −0.303 | Zfand5: LN (average fold change) (cluster ID 4, PP, OVA vs PBS): −0.245 | 1810037l17Rik: percentage of expressing cells in OVA-treated group (cluster ID 5, PP): 0.446 | Bcl2: percentage of expressing cells in OVA-treated group (cluster ID 5, PP): 0.863
